From article doi:10.1101/2023.12.02.569699 (bioRxiv, 2023)

Molecular target: T1, RING1B (H. sapiens, UniProt Q99496 1-336)
T1 sequence: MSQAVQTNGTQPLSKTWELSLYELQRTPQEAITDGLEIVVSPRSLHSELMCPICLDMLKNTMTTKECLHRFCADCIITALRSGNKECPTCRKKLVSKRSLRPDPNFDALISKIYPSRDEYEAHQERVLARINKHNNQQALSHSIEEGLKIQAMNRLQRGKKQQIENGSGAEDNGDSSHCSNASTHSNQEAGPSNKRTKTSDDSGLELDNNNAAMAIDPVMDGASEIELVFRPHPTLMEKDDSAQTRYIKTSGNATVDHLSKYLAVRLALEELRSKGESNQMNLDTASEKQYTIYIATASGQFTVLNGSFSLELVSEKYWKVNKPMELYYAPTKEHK
Experiment: SEC

| Binder | binding result |
| --- | --- |
| CBX7 (natural protein) MELSAIGEQVFAVESIRKKRVRKGKVEYLVKWKGWPPKYSTWEPEEHILDPRLVMAYEEKEERDRASGYRKRGPKPRRLLLQESAAPDVVQTPGDWEPMEQAPEEEAEADLTNGPPPWTPTLPSSEVTVTDITANSVTVTFREAQAAEGFFRDRNEKL | binds |
| CBX7(F11A) (natural protein) MELSAIGEQVAAVESIRKKRVRKGKVEYLVKWKGWPPKYSTWEPEEHILDPRLVMAYEEKEERDRASGYRKRGPKPRRLLLQESAAPDVVQTPGDWEPMEQAPEEEAEADLTNGPPPWTPTLPSSEVTVTDITANSVTVTFREAQAAEGFFRDRNEKL | binds |
| MBP-tagged BMI1 (natural protein) MHRTTRIKITELNPHLMCVLCGGYFIDATTIIECLHSFCKTCIVRYLETSKYCPICDVQVHKTRPLLNIRSDKTLQDIVYKLVPGLFKNEMKRRRDFYAAHPSADAANGSNEDRGEVADEDKRIITDDEIISLSIEFFDQNRLDRKVNKDKEKSKEEVNDKRYLRCPAAMTVMHLRKFLRSKMDIPNTFQIDVMYEEEPLKDYYTLMDIAYIYTWRRNGPLPLKYRVRPTCKRMKISHQRDGLTNAGELESDSGSDKANSPAGGIPSTSSCLPSPSTPVQSPHPQFPHISSTMNGTSNSPSGNHQSSFANRPRKSSVNGSSATSSG | binds |
